# According to US20180244785A1 (MERRIMACK PHARMACEUTICALS, published 2018):
# Residue numbers refer to the chain shown, from its start.
# B1: Ab16 (antibody, human IgG2, kappa, V domains shown)
# VH: EVQLLESGGGVVQPGRSLRLSCAASGFTFSSYAMHWVRQAPGKGLEWVAVISYDGSNKYYADSVKGRFTISRDNSKNTLSLQMNSLRVEDTAIYYCVRGAGRGYTRGPDGFDIWGQGTMVTVSS
# VL: DIVMTQTPLSLSVTPGQPASISCKSSRSLLHSDGKTYVYWYVQKSGQPPQLLIYELSNRFSGVPDRFSGSGSRTDFTLKISRVEAEDVGVYYCMQYIEAPLTFGGGTKVEIKR
# notes: format in the assays not spelled out
# B2: Ab21 (antibody, human IgG2, kappa, V domains shown)
# VH: B1 VH with R102L, Y104W, T105P, R106Y
# VL: B1 VL
# notes: as for B1
# B3: Ab25 (antibody, human IgG2, kappa, V domains shown)
# VH: B1 VH with R102L, Y104F, R106Y
# VL: B1 VL
# notes: as for B1
# B4: Ab27 (antibody, human IgG2, kappa, V domains shown)
# VH: B1 VH with R106L
# VL: B1 VL
# notes: as for B1
# B5: Ab29 (antibody, human IgG2, kappa, V domains shown)
# VH: B1 VH with R102L, Y104W, T105P, R106Y
# VL: B1 VL with K24T, I97V
# notes: as for B1
# B6: Ab31 (antibody, human IgG2, kappa, V domains shown)
# VH: B1 VH with Y104L, R106Y
# VL: B1 VL with K24T, I97V
# notes: as for B1
# B7: Ab32 (antibody, human IgG2, kappa, V domains shown)
# VH: B1 VH with R102L, Y104F, R106Y
# VL: B1 VL with K24T, I97V
# notes: as for B1
# B8: Ab34 (antibody, human IgG2, kappa, V domains shown)
# VH: B1 VH
# VL: B1 VL with K24T, I97V
# notes: as for B1
# B9: Ab23 (antibody, human IgG2, V domains shown)
# VH: B1 VH with Y104L, R106Y
# VL: DIVMTQTPLSLSVTPGQPASISCKSSRSLLHSDGKTYVYWYVQKSGQPPQLLIYELSNRFSGVPDRFSGSGSRTDFTLKISRVEAEDVGVYYCMQYIEAPLTFGGGTKVEIK
# notes: Format in the assays not spelled out
# B10: Ab43 (antibody, human IgG2, kappa, V domains shown)
# VH: B1 VH with T105P, R106Y
# VL: B1 VL with K24R
# notes: as for B1
# B11: Ab49 (antibody, human IgG2, kappa, V domains shown)
# VH: B1 VH with T105P, R106Y
# VL: B1 VL with K24R
# notes: as for B1
# B12: Ab51 (antibody, human IgG2, kappa, V domains shown)
# VH: B1 VH with Y104F, T105P, R106Y
# VL: B1 VL with K24R
# notes: as for B1
# B13: Ab56 (antibody, human IgG2, kappa, V domains shown)
# VH: B1 VH with R102M, Y104L, R106Y
# VL: B1 VL with K24T
# notes: as for B1
# B14: Ab57 (antibody, human IgG2, kappa, V domains shown)
# VH: B1 VH with R102L, Y104F, T105P, R106Y
# VL: B1 VL with K24T
# notes: as for B1
# B15: Ab63 (antibody, human IgG2, kappa, V domains shown)
# VH: B1 VH with T105P, R106H
# VL: B1 VL with K24T
# notes: as for B1
# B16: Ab67 (antibody, human IgG2, kappa, V domains shown)
# VH: B1 VH with Y104F, T105P, R106Y
# VL: B1 VL with K24T
# notes: as for B1
# B17: Ab68 (antibody, human IgG2, kappa, V domains shown)
# VH: B1 VH with R102L, T105P, R106N
# VL: B1 VL with K24T
# notes: as for B1
# B18: Ab70 (antibody, human IgG2, kappa, V domains shown)
# VH: B1 VH with R102Q, T105P, R106Y
# VL: B1 VL
# notes: as for B1
# B19: Ab72 (antibody, human IgG2, kappa, V domains shown)
# VH: B1 VH with R102M, Y104L, R106Y
# VL: B1 VL
# notes: as for B1
# B20: Ab76 (antibody, human IgG2, kappa, V domains shown)
# VH: B1 VH with T28D, S30A, S31G, Y104L, R106Y
# VL: B1 VL
# notes: as for B1
# B21: Ab82 (antibody, human IgG2, kappa, V domains shown)
# VH: B1 VH with R102L, Y104F, T105P, R106F
# VL: B1 VL
# notes: as for B1
# B22: Ab83 (antibody, human IgG2, kappa, V domains shown)
# VH: B1 VH with Y104F, T105P, R106Y
# VL: B1 VL
# notes: as for B1
# B23: Ab88 (antibody, human IgG2, kappa, V domains shown)
# VH: B1 VH with Y104L, R106Y
# VL: B1 VL with V38L
# notes: as for B1
# B24: Ab89 (antibody, human IgG2, kappa, V domains shown)
# VH: B1 VH with Y104F, T105P, R106Y
# VL: B1 VL with K24R, A99V
# notes: as for B1
# B25: Ab65 (antibody, human IgG2, kappa, V domains shown)
# VH: B1 VH with T105P, R106Y
# VL: B1 VL with K24T
# notes: as for B1
# Molecular target: FGFR1 on tumour cells (UniProt P11362 22-822)
# Sequence (P11362 22-822): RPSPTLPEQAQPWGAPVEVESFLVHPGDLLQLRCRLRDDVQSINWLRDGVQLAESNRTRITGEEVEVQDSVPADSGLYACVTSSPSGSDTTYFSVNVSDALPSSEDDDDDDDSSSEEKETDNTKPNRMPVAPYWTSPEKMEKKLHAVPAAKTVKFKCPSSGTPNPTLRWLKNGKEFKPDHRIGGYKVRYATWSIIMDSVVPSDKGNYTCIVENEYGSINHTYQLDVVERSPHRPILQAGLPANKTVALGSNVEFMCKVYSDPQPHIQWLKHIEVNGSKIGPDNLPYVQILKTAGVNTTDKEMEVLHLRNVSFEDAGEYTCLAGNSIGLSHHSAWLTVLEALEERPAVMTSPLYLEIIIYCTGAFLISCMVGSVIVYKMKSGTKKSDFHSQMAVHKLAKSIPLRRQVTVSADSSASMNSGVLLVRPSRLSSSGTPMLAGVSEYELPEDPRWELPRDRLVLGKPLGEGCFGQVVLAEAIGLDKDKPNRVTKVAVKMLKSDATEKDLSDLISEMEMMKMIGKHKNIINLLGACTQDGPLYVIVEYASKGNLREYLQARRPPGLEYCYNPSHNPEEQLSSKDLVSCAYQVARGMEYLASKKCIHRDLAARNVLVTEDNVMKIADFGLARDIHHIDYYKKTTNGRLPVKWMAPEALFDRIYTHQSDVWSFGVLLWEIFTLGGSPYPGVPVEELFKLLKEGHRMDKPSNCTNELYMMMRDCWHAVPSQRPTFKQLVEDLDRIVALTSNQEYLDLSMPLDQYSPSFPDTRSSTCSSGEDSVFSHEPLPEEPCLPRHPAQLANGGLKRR
# Experiment: cell-based or functional assay
row,Binder,IC50 of pERK inhibition (AlphaScreen SureFire) in NCI-H1581 cells [nM]
1,B1,3.88
2,B2,1.31
3,B3,1.64
4,B4,1.77
5,B5,0.54
6,B6,2.72
7,B7,2.55
8,B8,4.83
9,B9,3.04

# Molecular target: T1, 6His-Fc-FGFR4 (human, UniProt P22455 144-369)
# T1 construct: not shown: 6His tag and Fc as named in '6His-Fc-FGFR'
# T1 sequence: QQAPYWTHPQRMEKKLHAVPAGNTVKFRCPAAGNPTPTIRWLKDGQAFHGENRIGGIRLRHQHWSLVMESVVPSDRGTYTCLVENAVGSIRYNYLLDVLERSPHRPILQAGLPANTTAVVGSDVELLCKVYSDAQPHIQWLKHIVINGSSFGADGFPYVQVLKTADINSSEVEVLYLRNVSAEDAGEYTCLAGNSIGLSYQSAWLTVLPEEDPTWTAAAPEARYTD
# Experiment: competition ELISA, blocks 6His-Fc-FGFR4 binding to coated FGF2
# Protocol: (§1) ELISA plates were coated with 50 ug/ml Heparin Sulfate (HSPG) (Sigma Aldrich) and incubated overnight at room temperature. Plates were then washed extensively with PBS containing 0.05% v/v Tween20 (PBST). Plates were then blocked with 2.5% BSA in PBST for one hour and washed extensively as before. 40-60 μL of FGF1 or FGF2 was then added to each well at 40 μg/ml and allowed to bind at room temperature for 2 hours. Plates were then washed extensively with PBST as before. Stock solutions of each 6His-Fc-FGFR (FGFR1-4) were prepared at 500 ng/ml in 2% v/v BSA-PBST and each antibody was prepared as a 2×-dilution series in 2% v/v BSA-PBST. Antibodies dilution series and 6His-Fc-FGFR1-4 were diluted in a 1:1 fashion and immediately added to the relative wells of the plate and allowed to bind for 2 hours at room temperature. Plates were washed extensively as before with PBST and the remaining fraction of bound 6His-Fc-FGFR was detected using a polyclonal-anti-His-6-HRP conjugated antibody (Abcam) for one hour at room temperature. After extensive washing with PBST, 50 μl of Pierce Chemiluminescent substrate (Thermo Fisher Scientific, Rockford, USA) was added and plates were measured on an Envision plate reader (Perkin Elmer). Raw data was background corrected and plotted using Prism software. […]
row,Binder,IC50 [nM]
1,B1,40.1
2,B2,9.96
3,B3,11.6
4,B4,30.1
5,B5,5.41
6,B6,22.2
7,B7,11.5
8,B8,14.3
9,B10,10
10,B11,18.4
11,B12,21.1
12,B13,13.6
13,B14,8.41
14,B15,17.4
15,B16,12.8
16,B17,5.67
17,B18,19.8
18,B19,11.6
19,B20,37.3
20,B21,10.4
21,B22,154
22,B23,19
23,B24,27.4
24,B9,23.8
25,B25,13.4

# Molecular target: T2, 6His-Fc-FGFR1c (human, UniProt P11362 141-376)
# T2 construct: not shown: 6His tag and Fc as named in '6His-Fc-FGFR'
# T2 sequence: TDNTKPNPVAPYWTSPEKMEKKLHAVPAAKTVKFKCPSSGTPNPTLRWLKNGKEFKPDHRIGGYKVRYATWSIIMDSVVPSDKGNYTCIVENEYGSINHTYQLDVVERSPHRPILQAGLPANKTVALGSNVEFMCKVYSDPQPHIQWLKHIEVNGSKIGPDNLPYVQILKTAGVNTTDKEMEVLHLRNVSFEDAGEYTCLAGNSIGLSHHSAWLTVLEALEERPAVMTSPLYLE
# Experiment: competition ELISA, blocks 6His-Fc-FGFR1c binding to coated FGF2
# Protocol: as §1
row,Binder,IC50 [nM]
1,B1,6.28
2,B2,5.54
3,B3,4.95
4,B4,5.45
5,B5,4.19
6,B6,5.21
7,B7,4.29
8,B8,5.23
9,B10,6.62
10,B11,4.67
11,B12,3.86
12,B13,3.03
13,B14,2.8
14,B15,12.2
15,B16,5.36
16,B17,2.96
17,B18,4.59
18,B19,1.77
19,B20,6.3
20,B21,2.7
21,B22,9.23
22,B23,8.02
23,B24,11.1
24,B9,4.52
25,B25,3.18
